Assays:
[1] = target: T1, 3T3 cells that over-express human cMet (Homo sapiens, UniProt P08581); assay: Whole cell ELISA of peptide-displaying phage; assay type: cell-based; conditions: phage isolate; 3T3 cells expressing human cMet vs. non-expressing 3T3 cells
T1 construct: expressed in transfected cells; host or cells: 3T3 cells
In short: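 3T3 cells over-expressing human cMet seeded 10^5/well, pelleted and fixed with 0.1% glutaraldehyde 12 min at 37 °C. Blocked peptide-displaying phage bound 1 h at room temperature; after PBST wash, bound phage detected with HRP-conjugated anti-M13 antibody.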

cMet-Fc fusion protein = cMet-Fc fusion protein (Homo sapiens, UniProt P08581); assay: Protein phage ELISA: peptide-displaying phage binding to soluble cMet-Fc versus TRAIL-Fc; conditions: phage isolate; cMet-Fc vs. TRAIL-Fc
In short: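 Plates coated with 0.5 μg/mL cMet-Fc or, as background, TRAIL-Fc, then blocked with 3% BSA in PBST. Peptide-displaying phage bound 2 h at room temperature. Detection with HRP-anti-M13 antibody.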

Chain of cMet-Fc fusion protein (P08581 25-307 limits assumed): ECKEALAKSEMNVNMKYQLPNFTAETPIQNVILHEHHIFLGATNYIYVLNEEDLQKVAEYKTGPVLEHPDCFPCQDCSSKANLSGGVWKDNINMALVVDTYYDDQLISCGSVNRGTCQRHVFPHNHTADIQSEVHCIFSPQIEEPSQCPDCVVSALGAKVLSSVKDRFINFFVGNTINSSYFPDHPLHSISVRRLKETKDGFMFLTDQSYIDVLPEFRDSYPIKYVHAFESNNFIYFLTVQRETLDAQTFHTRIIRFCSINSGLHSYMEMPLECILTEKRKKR
Chain of cMet-Fc fusion protein (P08581 with tags, fused parts or gaps limits assumed): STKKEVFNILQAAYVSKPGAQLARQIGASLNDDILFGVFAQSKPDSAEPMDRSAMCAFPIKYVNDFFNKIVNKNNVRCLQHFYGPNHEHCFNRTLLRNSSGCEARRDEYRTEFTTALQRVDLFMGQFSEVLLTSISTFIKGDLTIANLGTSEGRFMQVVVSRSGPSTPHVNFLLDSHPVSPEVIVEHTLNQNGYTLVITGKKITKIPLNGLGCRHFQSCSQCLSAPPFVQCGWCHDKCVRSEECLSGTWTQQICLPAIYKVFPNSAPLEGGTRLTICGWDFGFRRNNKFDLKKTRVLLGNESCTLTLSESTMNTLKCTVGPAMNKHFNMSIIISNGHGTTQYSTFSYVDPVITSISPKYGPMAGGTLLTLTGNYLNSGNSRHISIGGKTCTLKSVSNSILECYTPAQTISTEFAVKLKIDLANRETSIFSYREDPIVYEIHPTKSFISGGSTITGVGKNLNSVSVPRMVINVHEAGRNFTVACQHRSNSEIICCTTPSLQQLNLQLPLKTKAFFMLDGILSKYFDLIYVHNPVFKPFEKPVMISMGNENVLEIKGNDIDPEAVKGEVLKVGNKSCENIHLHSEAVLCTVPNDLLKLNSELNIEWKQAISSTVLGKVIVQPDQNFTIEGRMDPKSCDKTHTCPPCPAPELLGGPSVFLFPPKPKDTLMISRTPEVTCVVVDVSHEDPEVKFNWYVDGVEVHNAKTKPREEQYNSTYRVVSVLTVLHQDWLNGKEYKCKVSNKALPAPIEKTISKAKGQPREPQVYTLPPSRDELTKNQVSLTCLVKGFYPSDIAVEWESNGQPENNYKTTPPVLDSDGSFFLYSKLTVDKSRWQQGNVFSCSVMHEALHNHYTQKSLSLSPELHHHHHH
T1 sequence (P08581 25-1390): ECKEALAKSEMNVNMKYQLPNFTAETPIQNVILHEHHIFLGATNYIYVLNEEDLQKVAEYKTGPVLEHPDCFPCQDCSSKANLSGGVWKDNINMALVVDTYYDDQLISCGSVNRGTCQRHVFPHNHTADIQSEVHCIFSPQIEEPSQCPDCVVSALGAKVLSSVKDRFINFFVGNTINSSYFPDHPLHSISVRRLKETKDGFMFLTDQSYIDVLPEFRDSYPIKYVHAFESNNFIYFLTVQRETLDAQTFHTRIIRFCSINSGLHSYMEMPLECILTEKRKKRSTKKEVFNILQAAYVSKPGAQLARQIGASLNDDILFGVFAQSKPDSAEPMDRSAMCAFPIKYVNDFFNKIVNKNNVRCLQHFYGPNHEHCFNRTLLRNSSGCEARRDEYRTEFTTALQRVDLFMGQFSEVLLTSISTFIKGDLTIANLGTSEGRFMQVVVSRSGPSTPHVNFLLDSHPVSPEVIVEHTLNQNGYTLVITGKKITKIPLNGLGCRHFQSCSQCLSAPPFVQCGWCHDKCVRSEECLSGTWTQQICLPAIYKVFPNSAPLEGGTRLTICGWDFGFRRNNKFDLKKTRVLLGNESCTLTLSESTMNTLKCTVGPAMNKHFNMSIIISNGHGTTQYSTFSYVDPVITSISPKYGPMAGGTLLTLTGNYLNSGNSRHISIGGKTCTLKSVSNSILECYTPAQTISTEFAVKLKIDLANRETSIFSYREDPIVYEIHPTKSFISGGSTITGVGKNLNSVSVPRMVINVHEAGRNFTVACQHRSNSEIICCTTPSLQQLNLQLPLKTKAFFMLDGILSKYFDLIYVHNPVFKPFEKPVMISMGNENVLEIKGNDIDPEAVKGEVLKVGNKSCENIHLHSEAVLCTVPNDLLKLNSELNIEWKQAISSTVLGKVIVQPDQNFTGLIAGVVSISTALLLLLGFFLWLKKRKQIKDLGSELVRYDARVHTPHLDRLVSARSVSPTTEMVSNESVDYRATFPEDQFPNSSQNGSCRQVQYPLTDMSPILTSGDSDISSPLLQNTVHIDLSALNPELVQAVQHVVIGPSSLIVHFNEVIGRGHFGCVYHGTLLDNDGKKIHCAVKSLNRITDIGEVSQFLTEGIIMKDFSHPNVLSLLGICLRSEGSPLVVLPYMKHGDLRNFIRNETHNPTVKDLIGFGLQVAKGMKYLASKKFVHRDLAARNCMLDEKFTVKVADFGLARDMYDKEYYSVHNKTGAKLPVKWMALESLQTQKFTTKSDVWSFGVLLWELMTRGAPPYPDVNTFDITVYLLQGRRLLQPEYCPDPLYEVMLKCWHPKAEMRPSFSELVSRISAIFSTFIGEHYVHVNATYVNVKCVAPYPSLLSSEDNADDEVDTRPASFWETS

Compound | WC ELISA [1] | Protein ELISA (cMet-Fc fusion protein)
AGQYLCTQAALGCPEWGT (Synthetically generated cMet-binding peptide sequence) [SEQ ID NO: 029] | 1.23 fold over background | 4.3 fold over background
AGVTNCNLSTMFCFLHGT (Synthetically generated cMet-binding peptide sequence) [SEQ ID NO: 026] | 1.30 fold over background | 3.8 fold over background
GSLIICWWSWCDKQAP (Synthetically generated cMet-binding peptide sequence) [SEQ ID NO: 009] | 1.27 fold over background | 3.8 fold over background
AGYYHCIDDFPQCKWMGT (Synthetically generated cMet-binding peptide sequence) [SEQ ID NO: 017] | 1.37 fold over background | 3.9 fold over background

More lines, now with the values ahead:

WC ELISA [1] | Protein ELISA (cMet-Fc fusion protein) | Compound
1.23 fold over background | 4.0 fold over background | CC[C@H](C)[C@H](NC(=O)[C@H](CC(=O)O)NC(=O)[C@H](Cc1ccccc1)NC(=O)[C@H](Cc1ccccc1)NC(=O)[C@H](CCC(=O)O)NC(=O)[C@H](Cc1c[nH]c2ccccc12)NC(=O)[C@@H](NC(=O)[C@H](CCC(=O)O)NC(=O)[C@H](CCCCN)NC(=O)[C@H](CCC(N)=O)NC(=O)[C@H](C)NC(C)=O)[C@@H](C)O)C(=O)N[C@H](C(=O)N[C@@H](Cc1ccc(O)cc1)C(=O)NCC(=O)N[C@@H](CO)C(=O)NCC(=O)N[C@@H](Cc1c[nH]c2ccccc12)C(=O)N[C@@H](CCCCN)C(=O)N[C@@H](Cc1ccccc1)C(=O)N[C@@H](CC(N)=O)C(=O)N[C@@H](CO)C(=O)N1CCC[C@H]1C(=O)NCC(=O)NCC(=O)NCC(=O)N[C@@H](CCCCNC(=O)c1ccc2c(c1)C(=O)OC21c2ccc(O)cc2Oc2cc(O)ccc21)C(N)=O)C(C)C [SEQ ID NO: 466]
1.33 fold over background | 3.7 fold over background | AGKQWCVVWEETCDQLGT (Synthetically generated cMet-binding peptide sequence) [SEQ ID NO: 039]
1.30 fold over background | 6.2 fold over background | GDNRFCSWVYNVDDWWCVDNDP (Synthetically generated cMet-binding peptide sequence) [SEQ ID NO: 398]
1.23 fold over background | 6.4 fold over background | GSQNNCEYGSRGSSFCLAMAP (Synthetically generated cMet-binding peptide sequence) [SEQ ID NO: 377]
1.47 fold over background | 12.6 fold over background | CC(=O)N[C@@H](C)C(=O)NCC(=O)N[C@@H](CCC(=O)O)C(=O)N[C@@H](Cc1c[nH]c2ccccc12)C(=O)N[C@@H](Cc1c[nH]c2ccccc12)C(=O)N[C@H]1CSSC[C@@H](C(=O)N[C@@H](Cc2ccc(O)cc2)C(=O)N[C@@H](Cc2c[nH]c3ccccc23)C(=O)N[C@H](C(=O)NCC(=O)N[C@H](C(=O)NCC(=O)NCC(=O)NCC(=O)N[C@@H](CCCCNC(=O)c2ccc3c(c2)C(=O)OC32c3ccc(O)cc3Oc3cc(O)ccc32)C(N)=O)[C@@H](C)O)[C@@H](C)O)NC(=O)[C@H](CC(C)C)NC(=O)[C@H](Cc2ccccc2)NC(=O)[C@H](CCC(=O)O)NC(=O)[C@@H]2CCCN2C(=O)[C@@H]2CCCN2C(=O)CNC(=O)[C@H](Cc2c[nH]cn2)NC1=O [SEQ ID NO: 072]

Reference: patent publication US9845340B2, “Peptides that specifically bind HGF receptor (cMet) and uses thereof” (Dyax Corp., priority 2003, dated 2017)
